From paper PMC4837482, “The complex binding mode of the peptide hormone H2 relaxin to its receptor RXFP1” (Nature Communications, 2016)
Values joined by “and” are separate entries in the source; they are usually repeats but may differ in a detail not shown here. Equal values may be shown once.

Columns and labels:
[1] = biological target: T1, RXFP1 A55L (Homo sapiens, UniProt Q9HBX9, A77L); experiment: cAMP activity assay (pCRE β-galactosidase reporter), transfected HEK293T cells; format: cell-based; conditions: construct A55L, ±s.e.m.
T1 construct: cells expressing full-length RXFP1 and mutants; expressed in transfected cells; host or cells: HEK293T
T1 sequence (Q9HBX9 23-757 A77L limits assumed): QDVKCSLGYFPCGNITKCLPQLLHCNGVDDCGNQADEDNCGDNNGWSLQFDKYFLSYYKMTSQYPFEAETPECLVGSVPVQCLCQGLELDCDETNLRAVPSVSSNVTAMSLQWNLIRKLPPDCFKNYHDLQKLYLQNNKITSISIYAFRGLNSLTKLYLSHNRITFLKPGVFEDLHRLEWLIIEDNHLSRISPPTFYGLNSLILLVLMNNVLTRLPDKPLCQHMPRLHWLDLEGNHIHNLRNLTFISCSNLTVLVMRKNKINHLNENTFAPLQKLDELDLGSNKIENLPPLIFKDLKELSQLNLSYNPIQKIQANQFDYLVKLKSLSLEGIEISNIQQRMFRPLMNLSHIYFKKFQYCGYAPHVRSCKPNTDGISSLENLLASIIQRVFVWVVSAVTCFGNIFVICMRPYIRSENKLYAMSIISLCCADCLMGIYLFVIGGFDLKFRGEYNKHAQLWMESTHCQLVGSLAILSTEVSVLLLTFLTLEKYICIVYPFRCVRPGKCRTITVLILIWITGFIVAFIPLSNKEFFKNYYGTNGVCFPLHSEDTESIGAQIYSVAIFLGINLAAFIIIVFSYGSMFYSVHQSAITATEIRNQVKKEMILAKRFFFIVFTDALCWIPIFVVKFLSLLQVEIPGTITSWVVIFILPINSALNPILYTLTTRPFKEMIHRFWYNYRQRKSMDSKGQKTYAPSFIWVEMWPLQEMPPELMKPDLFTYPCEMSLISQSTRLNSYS
Procedure, shortened: (§1)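 Absorbance at 570 nm from β-galactosidase cleavage of chlorophenol red-β-D-galactopyranoside, expressed as percentage of the maximal 5 μM Forskolin response (mean ± s.e.m., ≥3 experiments in triplicate). Stimulant was H2 relaxin in minimal media containing 1% DMSO.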

[2] = biological target: T2, RXFP1 C40A^ins (Homo sapiens, UniProt Q9HBX9, INS62A); experiment: as above; format: cell-based; conditions: construct C40A^ins
T2 construct: cells expressing full-length RXFP1 and mutants; expressed in transfected cells; host or cells: HEK293T
T2 sequence (Q9HBX9 with tags, fused parts or gaps INS62A limits assumed): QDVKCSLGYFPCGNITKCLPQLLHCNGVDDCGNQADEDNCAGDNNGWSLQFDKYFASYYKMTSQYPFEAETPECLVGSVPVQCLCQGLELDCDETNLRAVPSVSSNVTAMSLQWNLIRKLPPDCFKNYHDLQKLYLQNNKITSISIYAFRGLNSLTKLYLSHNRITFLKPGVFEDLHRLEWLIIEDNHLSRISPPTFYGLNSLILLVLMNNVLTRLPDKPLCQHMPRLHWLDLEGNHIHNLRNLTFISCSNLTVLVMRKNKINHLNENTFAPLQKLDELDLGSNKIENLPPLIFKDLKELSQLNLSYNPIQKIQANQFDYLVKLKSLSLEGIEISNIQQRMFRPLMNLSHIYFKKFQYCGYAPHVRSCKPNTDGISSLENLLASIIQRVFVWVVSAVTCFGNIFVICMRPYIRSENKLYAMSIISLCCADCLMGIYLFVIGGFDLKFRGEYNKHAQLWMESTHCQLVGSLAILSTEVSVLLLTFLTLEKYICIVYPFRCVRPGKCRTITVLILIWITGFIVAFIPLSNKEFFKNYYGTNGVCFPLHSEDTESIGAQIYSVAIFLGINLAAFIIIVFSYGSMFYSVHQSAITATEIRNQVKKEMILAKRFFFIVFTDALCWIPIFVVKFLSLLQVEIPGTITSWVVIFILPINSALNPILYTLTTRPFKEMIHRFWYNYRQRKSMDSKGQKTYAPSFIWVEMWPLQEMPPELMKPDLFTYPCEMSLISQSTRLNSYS
Procedure, shortened: as §1

[3] = biological target: T3, RXFP1(1–72) (Homo sapiens, UniProt Q9HBX9); experiment: 2D 1H-15N HSQC monitored H2 relaxin titration of 15N-labelled RXFP1(1–72); conditions: 50 μM 15N-labelled RXFP1(1–72); single-site binding curve fit of Asp51, Ala55, Thr61 chemical shifts; pH 6.8, 25 °C; read-out: affinity (Kd) of H2 relaxin for RXFP1(1–72)
T3 construct: GB1 (N, cleaved yes); made in house; host or cells: E. coli BL21 (DE3) trxB
T3 sequence (Q9HBX9 23-94 limits assumed): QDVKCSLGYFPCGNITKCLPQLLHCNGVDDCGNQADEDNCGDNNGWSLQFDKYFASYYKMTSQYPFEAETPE
Method: All RXFP1(1–72) protein samples for nuclear magnetic resonance (NMR) experiments were prepared from lyophilized protein in 50 mM imidazole, with 10 mM CaCl2 at pH 6.8. Recombinant human gene-2 H2 relaxin peptide was kindly provided by Corthera. EL1^(475–486)/EL2-GB1 samples were prepared as described above. Titrant and titrand were dialyzed in the same buffer in the same vessel. All NMR experiments were routinely collected at 25 °C on a 700-MHz Bruker Avance HDIII spectrometer equipped with triple resonance cryoprobe. […] Backbone assignments were made from 3D HNCACB, HNCOCACB, HNCO and HNCACO experiments. Spectra were processed using NMRPipe (ref. [43]) and typically Fourier-transformed after applying Lorentz-to-Gauss window functions in the direct dimension and cosine bells in the indirect dimensions. NMR data were analysed using SPARKY (Goddard, T.D. and Kneller, D.G., University of California, San Francisco). Assignments of the mutant RXFP1(1–72) proteins were determined from the assignments of wild-type RXFP1(1–72).
The binding of H2 relaxin to RXFP1(1–72) was monitored by acquiring 2D ^1H-^15N Heteronuclear Single Quantum Coherence (HSQC; 2,048 × 256 data points) for each titration point of increasing H2 relaxin: 25, 50, 100, 200, 400 and 500 μM against 50 μM RXFP1(1–72). […]

[4] = percentage of maximum response to 5 μM Forskolin

In the case of “H2 relaxin: two-chain 6-kDa peptide hormone structurally related to insulin; recombinant human gene-2 H2 relaxin provided by Corthera”, the “H2 relaxin pEC50” value ([1]; cAMP reporter) is reported as 10.75±0.17 (5), the “H2 relaxin Emax” value [1, 4] is reported as 123.59±8.51 (5) % and the “H2 relaxin pEC50” value ([2]; cAMP reporter) is reported as “No activity”. For the same substance, the “H2 relaxin Emax” value [2, 4] was “No activity” and the Kd [3] was 200 µM and ~200 µM.
